Experimental data as given in patent US20210147812A1, “Method of Preparing Cancer Spheroid and Method of Selecting Colorectal Cancer Patient” (Kyo Diagnostics K.K., priority 2017, published 2021).

System: CRC-TIC spheroid lines that carried wild-type RAS/RAF genes (HC6T, HC9T, HC11T, HC21T)
Assay: Stimulation of spheroid growth with EGF and/or bFGF, luminescence-based growth monitoring (GEI)
Assay type: cell-based, human
Settings: HC11T
Procedure: Luminescence was determined daily or 3 days later. The cell growth rate for each well was estimated as the proportion of photon counts to those on day 1. Four or six replicates (with similar statistical power) were analyzed for each data point in all experiments except for the chemical compound screening assays.
To investigate whether EGF and bFGF helped spheroid proliferation in the cancer medium as described above, we cultured with EGF and/or bFGF four slow-growing CRC-TIC spheroid lines that carried wild-type RAS/RAF genes (HC6T, HC9T, HC11T, HC21T). Because EGF/bFGF facilitated the growths of these spheroid lines substantially (FIG. 3A), we then quantified their effects by the luminescence-based growth monitoring. To calibrate the effects, we introduced the growth effect index (GEI) defined as the relative growth rate of a treated group to that of its solvent-only control in each paired assay. […] The extents of growth promotion by EGF and bFGF were different depending on the spheroid line. […] In another spheroid line (HC21T), the effects were similar between the two growth factors (FIG. 3B).

B1: EGF: epidermal growth factor, recombinant human protein (protein, UniProt P01133 23-1207, looked up)
Pro-epidermal growth factor: PQHWSCPEGTLAGNGNSTCVGPAPFLIFSHGNSIFRIDTEGTNYEQLVVDAGVSVIMDFHYNEKRIYWVDLERQLLQRVFLNGSRQERVCNIEKNVSGMAINWINEEVIWSNQQEGIITVTDMKGNNSHILLSALKYPANVAVDPVERFIFWSSEVAGSLYRADLDGVGVKALLETSEKITAVSLDVLDKRLFWIQYNREGSNSLICSCDYDGGSVHISKHPTQHNLFAMSLFGDRIFYSTWKMKTIWIANKHTGKDMVRINLHSSFVPLGELKVVHPLAQPKAEDDTWEPEQKLCKLRKGNCSSTVCGQDLQSHLCMCAEGYALSRDRKYCEDVNECAFWNHGCTLGCKNTPGSYYCTCPVGFVLLPDGKRCHQLVSCPRNVSECSHDCVLTSEGPLCFCPEGSVLERDGKTCSGCSSPDNGGCSQLCVPLSPVSWECDCFPGYDLQLDEKSCAASGPQPFLLFANSQDIRHMHFDGTDYGTLLSQQMGMVYALDHDPVENKIYFAHTALKWIERANMDGSQRERLIEEGVDVPEGLAVDWIGRRFYWTDRGKSLIGRSDLNGKRSKIITKENISQPRGIAVHPMAKRLFWTDTGINPRIESSSLQGLGRLVIASSDLIWPSGITIDFLTDKLYWCDAKQSVIEMANLDGSKRRRLTQNDVGHPFAVAVFEDYVWFSDWAMPSVMRVNKRTGKDRVRLQGSMLKPSSLVVVHPLAKPGADPCLYQNGGCEHICKKRLGTAWCSCREGFMKASDGKTCLALDGHQLLAGGEVDLKNQVTPLDILSKTRVSEDNITESQHMLVAEIMVSDQDDCAPVGCSMYARCISEGEDATCQCLKGFAGDGKLCSDIDECEMGVPVCPPASSKCINTEGGYVCRCSEGYQGDGIHCLDIDECQLGEHSCGENASCTNTEGGYTCMCAGRLSEPGLICPDSTPPPHLREDDHHYSVRNSDSECPLSHDGYCLHDGVCMYIEALDKYACNCVVGYIGERCQYRDLKWWELRHAGHGQQQKVIVVAVCVVVLVMLLLLSLWGAHYYRTQKLLSKNPKNPYEESSRDVRSRRPADTEDGMSSCPQPWFVVIKEHQDLKNGGQPVAGEDGQAADGSMQPTSWRQEPQLCGMGTEQGCWIPVSSDKGSCPQVMERSFHMPSYGTQTLEGGVEKPHSLLSANPLWQQRALDPPHQMELTQ
modifications: Pro-epidermal growth factor
notes: epidermal growth factor, recombinant human protein
extent of growth promotion, bFGF versus EGF: vice versa
